For test [1], the target named is T1, hHER-2-Fc (human, UniProt P04626 23-652).
T1 construct: Coated unlabelled in the sandwich ELISA; biotinylated and captured on an SA chip in the SPR assay; also called human HER-2-Fc; hHER-2-Fc-biotin; not shown: Fc part of the bought fusion protein
The test is described as follows: sandwich ELISA: hHER-2-Fc coated, IgG, hEGFR-Fc-biotin detection. The protocol: Two sandwich ELISAs are developed, one for detecting anti-HER-2/anti-EGFR BsAb activity and one for detecting anti-cMET/anti-Axl BsAb activity. For both ELISAs, clear 96-well round bottom high binding Immulon microtiter plates (Greiner bio-one, cat#650061) are coated overnight at 2-8° C. with 50 μL/well 1 μg/mL hHER-2-Fc or 1 μg/mL hHGFR(cMet)-Fc (both from R&D systems) in a 50 mM Na₂CO₃ pH 8 buffer. The plates are washed 4 times with PB ST and blocked with 100 μL/well casein buffer (Pierce) for 1 hr at 37° C. The plates are then washed 4 times with PBST and the parental IgG controls or BsAb IgG test articles are added at 50 μL/well and 5 μg/mL and serially diluted 1:3 down the plate. The test articles are incubated on the plate for 1 hr at 37° C. The plates are then washed 4 times with PBST and 50 μL/well 0.2 μg/mL hEGFR-Fc-biotin or hAxl-Fc-biotin (both from R&D systems) is added for 1 hr at 37° C. The plates are then washed 4 times with PBST followed by the addition of a 50 μL/well streptavidin-HRP (Jackson Labs) diluted 1:2000 in PBST. The streptavidin-HRP is incubated in each well for 1 hr at 37° C. The plates are then washed 4 times with PBST and 100 μL/well 1-component TMB substrate is added (KPL laboratories). […] Absorbance (450 nm) of every well in the plates is read using a SpectraMax UV plate reader (Molecular Devices). […]
In general terms: In an ELISA, binding on a coated surface is turned into a signal by an enzyme label.

Test [2] addresses T1, hHER-2-Fc. Nature of the test: sandwich ELISA: hHER-2-Fc coated, BsAb, hEGFR-Fc-biotin detection. The protocol:
(§1) Two sandwich ELISAs are developed, one for detecting anti-HER-2/anti-EGFR BsAb activity and one for detecting anti-cMET/anti-Axl BsAb activity. For both ELISAs, clear 96-well round bottom high binding Immulon microtiter plates (Greiner bio-one, cat#650061) are coated overnight at 2-8° C. with 50 μL/well 1 μg/mL hHER-2-Fc or 1 μg/mL hHGFR(cMet)-Fc (both from R&D systems) in a 50 mM Na₂CO₃ pH 8 buffer. The plates are washed 4 times with PB ST and blocked with 100 μL/well casein buffer (Pierce) for 1 hr at 37° C. The plates are then washed 4 times with PBST and the parental IgG controls or BsAb IgG test articles are added at 50 μL/well and 5 μg/mL and serially diluted 1:3 down the plate. The test articles are incubated on the plate for 1 hr at 37° C. The plates are then washed 4 times with PBST and 50 μL/well 0.2 μg/mL hEGFR-Fc-biotin or hAxl-Fc-biotin (both from R&D systems) is added for 1 hr at 37° C. The plates are then washed 4 times with PBST followed by the addition of a 50 μL/well streptavidin-HRP (Jackson Labs) diluted 1:2000 in PBST. The streptavidin-HRP is incubated in each well for 1 hr at 37° C. The plates are then washed 4 times with PBST and 100 μL/well 1-component TMB substrate is added (KPL laboratories). After approximately 10 minutes, […] 1% H₃PO₄ (in H₂O) is added to each plate to quench the reaction. Absorbance (450 nm) of every well in the plates is read using a SpectraMax UV plate reader (Molecular Devices). Biotin-labeling of the hEGFR-Fc and hAxl-Fc proteins is performed using EZ-Link Sulfo-NHS-LC-Biotin (Thermo Scientific) according to the manufacturer's protocol.

The next test concerns the target T2, hEGFR-Fc (human, UniProt P00533 25-645).
T2 construct: Biotin-labelled (EZ-Link Sulfo-NHS-LC-Biotin) as detection reagent in the ELISA; unlabelled second injection in SPR; also called hEGFR-Fc-biotin; not shown: Fc part of the bought fusion protein
The description is as above. The protocol:
as §1

The source of these data is patent US20160039947A1 (Eli Lilly, published 2016).

B1: matuzumab IgG1 (mG1) (antibody, V domains shown)
VH: QVQLVQSGAEVKKPGASVKVSCKASGYTFTSHWMHWVRQAPGQGLEWIGEFNPSNGRTNYNEKFKSKATMTVDTSTNTAYMELSSLRSEDTAVYYCASRDYDYDGRYFDYWGQGTLVTVSS
VL: DIQMTQSPSSLSASVGDRVTITCSASSSVTYMYWYQQKPGKAPKLLIYDTSNLASGVPSRFSGSGSGTDYTFTISSLQPEDIATYYCQQWSSHIFTFGQGTKVEIKG
notes: also called matuzumab (anti-EGFR) control IgG
Consider B1, for which the binding result with hHER-2-Fc [1] is given as “no binding (tested: 5 µg/mL, serially diluted 1:3)”.

B2: HEDesign λλ (anti-HER-2/anti-EGFR IgG BsAb with Fab redesigns) (bispecific antibody)
heavy 1: EVQLVESGGGLVQPGGSLRLSCAASGFTFTDYTMDWVRKAPGKGLEWVADVNPNSGGSIYNQEFKGRFTLSVDRSKNTLYLQMNSLRAEDTAVYYCARNLGPSFYFDYWGQGTLVTVSSASTKGPSVFPLAPSSKSTSGGTAALGCLVKDYFPEPVTVSWNSGALTSGVATGPAVLQSSGLYSLSSVVTVPSSSLGTQTYICNVNHKPSNTKVDKKVEPKSCDKTHTCPPCPAPELLGGPSVFLFPPKPKDTLMISRTPEVTCVVVDVSHEDPEVKFNWYVDGVEVHNAKTKPREEQYQSTYRVVSVLTVLHQDWLNGKEYKCKVSNKALPAPIEKTISKAKGQPREPQVYTLPPSRDELTKNQVSLTCLVKGFYPSDIAVEWESNGQPENNYDTTPPVLDSDGSFFLYSDLTVDKSRWQQGNVFSCSVMHEALHNHYTQKSLSLSPG
light 1: RIQMTQSPSSLSASVGDRVTITCKASQDVSIGVAWYQDKPGKAPKLLIYSASYRYTGVPSRFSGSGSGTDFTLTISSLQPEDFATYYCQQYYIYPYTFGQGTKVEIKGQPKAAPSVTLFPPSSEELQANKATLVCYISDFYPGAVTVAWKADSSPVKAGVETTTPSKQSNNKYAAWSYLSLTPEQWKSHRSYSCQVTHEGSTVEKTVAPTEC
heavy 2: QVQLVQSGAEVKKPGASVKVSCKASGYTFTSHWMHWVRYAPGQGLEWIGEFNPSNGRTNYNEKFKSKATMTVDTSTNTAYMELSSLRSEDTAVYYCASRDYDYDGRYFDYWGQGTLVTVSSASTKGPSVFPLAPSSKSTSGGTAALGCLVKDYFPEPVTVSWNSGALTSGVHTFPAVLQSSGLYSLSSVVTVPSSSLGTQTYICNVNHKPSNTKVDKKVEPKSCDKTHTCPPCPAPELLGGPSVFLFPPKPKDTLMISRTPEVTCVVVDVSHEDPEVKFNWYVDGVEVHNAKTKPREEQYQSTYRVVSVLTVLHQDWLNGKEYKCKVSNKALPAPIEKTISKAKGQPREPQVYTLPPSRKELTKNQVSLTCLVKGFYPSDIAVEWESNGQPENNYKTTPPVLKSDGSFFLYSKLTVDKSRWQQGNVFSCSVMHEALHNHYTQKSLSLSPG
light 2: DIQMTQSPSSLSASVGDRVTITCSASSSVTYMYWYQRKPGKAPKLLIYDTSNLASGVPSRFSGSGSGTDYTFTISSLQPEDIATYYCQQWSSHIFTFGQGTKVEIKGQPKAAPSVTLFPPSSEELQANKATLVCLISDFYPGAVTVAWKADSSPVKAGVETTTPSKQSNNKYAASSYLSLTPEQWKSHRSYSCQVTHEGSTVEKTVAPTEC
notes: also called HE Designs
In the case of B2, the binding result in the test with hHER-2-Fc [2] and in the test with hEGFR-Fc was “binds” in each case.

B3: HEDesign κλ (anti-HER-2/anti-EGFR IgG BsAb with Fab redesigns) (bispecific antibody)
heavy 1: EVQLVESGGGLVQPGGSLRLSCAASGFTFTDYTMDWVRKAPGKGLEWVADVNPNSGGSIYNQEFKGRFTLSVDRSKNTLYLQMNSLRAEDTAVYYCARNLGPSFYFDYWGQGTLVTVSSASTKGPSVFPLAPSSKSTSGGTAALGCLVKDYFPEPVTVSWNSGALTSGVATGPAVLQSSGLYSLSSVVTVPSSSLGTQTYICNVNHKPSNTKVDKKVEPKSCDKTHTCPPCPAPELLGGPSVFLFPPKPKDTLMISRTPEVTCVVVDVSHEDPEVKFNWYVDGVEVHNAKTKPREEQYQSTYRVVSVLTVLHQDWLNGKEYKCKVSNKALPAPIEKTISKAKGQPREPQVYTLPPSRDELTKNQVSLTCLVKGFYPSDIAVEWESNGQPENNYDTTPPVLDSDGSFFLYSDLTVDKSRWQQGNVFSCSVMHEALHNHYTQKSLSLSPG
light 1: RIQMTQSPSSLSASVGDRVTITCKASQDVSIGVAWYQDKPGKAPKLLIYSASYRYTGVPSRFSGSGSGTDFTLTISSLQPEDFATYYCQQYYIYPYTFGQGTKVEIKRTVAAPSVFIFPPSDEQLKSGTASVVCYLNNFYPREAKVQWKVDNALQSGNSQESVTEQDSKDSTYSLWSTLTLSKADYEKHKVYACEVTHQGLSSPVTKSFNRGEC
heavy 2: QVQLVQSGAEVKKPGASVKVSCKASGYTFTSHWMHWVRYAPGQGLEWIGEFNPSNGRTNYNEKFKSKATMTVDTSTNTAYMELSSLRSEDTAVYYCASRDYDYDGRYFDYWGQGTLVTVSSASTKGPSVFPLAPSSKSTSGGTAALGCLVKDYFPEPVTVSWNSGALTSGVHTFPAVLQSSGLYSLSSVVTVPSSSLGTQTYICNVNHKPSNTKVDKKVEPKSCDKTHTCPPCPAPELLGGPSVFLFPPKPKDTLMISRTPEVTCVVVDVSHEDPEVKFNWYVDGVEVHNAKTKPREEQYQSTYRVVSVLTVLHQDWLNGKEYKCKVSNKALPAPIEKTISKAKGQPREPQVYTLPPSRKELTKNQVSLTCLVKGFYPSDIAVEWESNGQPENNYKTTPPVLKSDGSFFLYSKLTVDKSRWQQGNVFSCSVMHEALHNHYTQKSLSLSPG
light 2: DIQMTQSPSSLSASVGDRVTITCSASSSVTYMYWYQRKPGKAPKLLIYDTSNLASGVPSRFSGSGSGTDYTFTISSLQPEDIATYYCQQWSSHIFTFGQGTKVEIKGQPKAAPSVTLFPPSSEELQANKATLVCLISDFYPGAVTVAWKADSSPVKAGVETTTPSKQSNNKYAASSYLSLTPEQWKSHRSYSCQVTHEGSTVEKTVAPTEC
notes: also called HE Designs
With B3, the binding result with hHER-2-Fc [2] and with hEGFR-Fc was “binds” in each case.

B4: HEDesign λκ (anti-HER-2/anti-EGFR IgG BsAb with Fab redesigns) (bispecific antibody)
heavy 1: EVQLVESGGGLVQPGGSLRLSCAASGFTFTDYTMDWVRKAPGKGLEWVADVNPNSGGSIYNQEFKGRFTLSVDRSKNTLYLQMNSLRAEDTAVYYCARNLGPSFYFDYWGQGTLVTVSSASTKGPSVFPLAPSSKSTSGGTAALGCLVKDYFPEPVTVSWNSGALTSGVATGPAVLQSSGLYSLSSVVTVPSSSLGTQTYICNVNHKPSNTKVDKKVEPKSCDKTHTCPPCPAPELLGGPSVFLFPPKPKDTLMISRTPEVTCVVVDVSHEDPEVKFNWYVDGVEVHNAKTKPREEQYQSTYRVVSVLTVLHQDWLNGKEYKCKVSNKALPAPIEKTISKAKGQPREPQVYTLPPSRDELTKNQVSLTCLVKGFYPSDIAVEWESNGQPENNYDTTPPVLDSDGSFFLYSDLTVDKSRWQQGNVFSCSVMHEALHNHYTQKSLSLSPG
light 1: RIQMTQSPSSLSASVGDRVTITCKASQDVSIGVAWYQDKPGKAPKLLIYSASYRYTGVPSRFSGSGSGTDFTLTISSLQPEDFATYYCQQYYIYPYTFGQGTKVEIKGQPKAAPSVTLFPPSSEELQANKATLVCYISDFYPGAVTVAWKADSSPVKAGVETTTPSKQSNNKYAAWSYLSLTPEQWKSHRSYSCQVTHEGSTVEKTVAPTEC
heavy 2: QVQLVQSGAEVKKPGASVKVSCKASGYTFTSHWMHWVRYAPGQGLEWIGEFNPSNGRTNYNEKFKSKATMTVDTSTNTAYMELSSLRSEDTAVYYCASRDYDYDGRYFDYWGQGTLVTVSSASTKGPSVFPLAPSSKSTSGGTAALGCLVKDYFPEPVTVSWNSGALTSGVHTFPAVLQSSGLYSLSSVVTVPSSSLGTQTYICNVNHKPSNTKVDKKVEPKSCDKTHTCPPCPAPELLGGPSVFLFPPKPKDTLMISRTPEVTCVVVDVSHEDPEVKFNWYVDGVEVHNAKTKPREEQYQSTYRVVSVLTVLHQDWLNGKEYKCKVSNKALPAPIEKTISKAKGQPREPQVYTLPPSRKELTKNQVSLTCLVKGFYPSDIAVEWESNGQPENNYKTTPPVLKSDGSFFLYSKLTVDKSRWQQGNVFSCSVMHEALHNHYTQKSLSLSPG
light 2: DIQMTQSPSSLSASVGDRVTITCSASSSVTYMYWYQRKPGKAPKLLIYDTSNLASGVPSRFSGSGSGTDYTFTISSLQPEDIATYYCQQWSSHIFTFGQGTKVEIKRTVAAPSVFIFPPSDEQLKSGTASVVCLLNNFYPREAKVQWKVDNALQSGNSQESVTEQDSKDSTYSLSSTLTLSKADYEKHKVYACEVTHQGLSSPVTKSFNRGEC
notes: also called HE Designs
In the case of B4, the binding result with hHER-2-Fc [2] and with hEGFR-Fc was “binds” each time.
